The values that follow are results of earlier work, collected in article PMC8910494.

For this data set, the target named is FICD (Homo sapiens) (UniProt Q9BVA6).

By Kd is commonly meant the constant that tells how readily two partners part at equilibrium. For FICD (from UniProt Q9BVA6), the Kd is 1.2 nM.
